Test results from paper PMC2747047.

Tests used:
Assay in all cases: purified protein
[1] = system: CO/N=C(\C(=O)N[C@@H]1C(=O)N2C(C(=O)O)=C(COC(C)=O)CS[C@H]12)c1csc(N)n1; settings: Fe/Zn enzyme; buffer not told in main text
[2] = system: C[C@@H](O)[C@H]1C(=O)N2C(C(=O)O)=C(SCCN=CN)C[C@H]12; settings: Fe/Zn enzyme; buffer not told in main text
[3] = system: O=C(Cc1cccs1)N[C@@H]1C(=O)N2C(C(=O)O)=C(/C=C/c3ccc([N+](=O)[O-])cc3[N+](=O)[O-])CS[C@H]12; assay type: biochemical, Arabidopsis thaliana; settings: 10 mM MOPS, pH 7.2 (as in Figure 2), Fe/Zn enzyme

## Glx2-1 (Arabidopsis thaliana)
[1]
  Km: 25 ± 5 µM
  kcat: 0.20 ± 0.01 s⁻¹
[2]
  Km: 23 ± 3 µM
  kcat: 0.20 ± 0.01 s⁻¹
[3]
  Km: 9.9 ± 1.6 µM
  kcat: 1.20 ± 0.04 s⁻¹
